According to patent publication US20160251440A1 (Ablynx, published 2016):

Tests used:
[1] = biological target: T1, human CD4, cell-expressed (human, UniProt P01730 26-458); experiment: flow cytometry on MOLM-13 cells (CD4, no IL12R or IL23R), upper right panel
T1 construct: whole, on cells

[2] = biological target: T1, human CD4, cell-expressed; experiment: flow cytometry on activated T cells of donor D838 (very high CD4), lower left panel
[3] = biological target: T2, human IL-23R extracellular domain Fc-fusion (human, UniProt Q5VWK5 24-355); experiment: competition ELISA, coated IL-23 + IL-23R-Fc
T2 construct: extracellular domain; bought; also called IL-23R-Fc
T2 sequence (looked up): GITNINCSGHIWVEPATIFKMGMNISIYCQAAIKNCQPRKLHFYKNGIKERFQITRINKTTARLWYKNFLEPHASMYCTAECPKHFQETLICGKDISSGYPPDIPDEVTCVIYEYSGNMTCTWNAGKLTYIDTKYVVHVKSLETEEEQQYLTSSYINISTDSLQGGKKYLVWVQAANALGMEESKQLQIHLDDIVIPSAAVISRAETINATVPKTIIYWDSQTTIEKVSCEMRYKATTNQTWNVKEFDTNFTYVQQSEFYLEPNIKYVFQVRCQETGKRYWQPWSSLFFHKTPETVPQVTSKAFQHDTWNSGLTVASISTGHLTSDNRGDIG

[4] = biological target: T2, human IL-23R extracellular domain …; experiment: competition ELISA, ratio to monovalent IL23R#20
[5] = biological target: T1, human CD4, cell-expressed; experiment: flow cytometry on MOLM-13 cells (CD4, no IL12R or IL23R), lower left panel
[6] = biological target: T3, human IL12Rβ1 extracellular domain Fc-fusion (human, UniProt P42701 24-545); experiment: competition ELISA, coated IL-12 + IL12Rβ1-Fc
T3 construct: extracellular domain; bought; also called IL12Rβ1-Fc; hIL-12Rβ1-Fc; not shown: Fc part, captured by anti-hIgG

[7] = biological target: T1, human CD4, cell-expressed; experiment: flow cytometry on activated T cells of donor D838 (very high CD4, moderate IL12R), upper right panel
[8] = biological target: T3, human IL12Rβ1 extracellular domain …; experiment: competition ELISA, ratio to monovalent IL12Rb1#30
[9] = biological target: T3, human IL12Rβ1 extracellular domain …; experiment: competition ELISA, coated IL-23 + IL12Rβ1-Fc
[10] = biological target: T4, human IL12Rβ1, cell-expressed (human, UniProt P42701 24-662); experiment: cell-based or functional assay
[11] = biological target: T3, human IL12Rβ1 extracellular domain …; experiment: competition ELISA, ratio to monovalent IL12Rb1#30; remark: listed apart in the source
[12] = biological target: T4, human IL12Rβ1, cell-expressed; experiment: cell-based or functional assay; remark: listed apart in the source
[13] = biological target: T3, human IL12Rβ1 extracellular domain …; experiment: competition ELISA, ratio to monovalent IL12Rb1#31
[14] = biological target: T3, human IL12Rβ1 extracellular domain …; experiment: competition ELISA, ratio to monovalent IL12Rb1#31; remark: listed apart in the source
[15] = biological target: T2, human IL-23R extracellular domain …; experiment: competition ELISA, ratio to monovalent IL23R#19
[16] = biological target: T5, human IL-23R, cell-expressed (human, UniProt Q5VWK5 24-629); experiment: cell-based or functional assay
T5 sequence (looked up): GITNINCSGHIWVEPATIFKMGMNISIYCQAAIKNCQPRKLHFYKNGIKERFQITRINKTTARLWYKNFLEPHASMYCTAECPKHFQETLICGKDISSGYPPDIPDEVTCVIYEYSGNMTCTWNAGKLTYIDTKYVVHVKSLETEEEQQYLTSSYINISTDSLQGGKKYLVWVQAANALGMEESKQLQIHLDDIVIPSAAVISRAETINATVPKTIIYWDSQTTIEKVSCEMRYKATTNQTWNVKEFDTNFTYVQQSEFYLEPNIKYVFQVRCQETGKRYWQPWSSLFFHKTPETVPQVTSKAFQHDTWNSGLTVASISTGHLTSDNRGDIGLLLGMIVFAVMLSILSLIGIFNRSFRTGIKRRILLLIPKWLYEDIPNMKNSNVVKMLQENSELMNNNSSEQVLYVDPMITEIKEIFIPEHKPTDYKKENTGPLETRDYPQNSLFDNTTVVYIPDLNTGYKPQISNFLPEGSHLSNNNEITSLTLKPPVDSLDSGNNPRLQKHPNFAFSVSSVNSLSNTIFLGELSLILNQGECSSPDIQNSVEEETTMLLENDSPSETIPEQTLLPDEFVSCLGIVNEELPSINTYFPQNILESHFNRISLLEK

Binder	EC50 (read off the curve) [1] [nM]	EC50 (read off the curve) [2] [nM]	IC50 [3] [nM]	EC50 (read off the curve) [5] [nM]	IC50 [6] [nM]	EC50 (read off the curve) [7] [nM]	IC50 [9] [nM]	IC50, IFNγ release, PBMC D840 [10] [nM]	IC50, IFNγ release, T cells D839 [10] [nM]	fold ctrl, IFNγ release, PBMC D840 [10] [fold]	IC50, IL-17 release, PBMC D840 [12] [nM]	fold ctrl, IL-17 release [12] [fold]	also measured
IL23R#20-35GS-CD4#8 (bispecific antibody, also called BI#43; T023200043) EVQLVESGGGLVQAGGSLRLSCAASGRTFSSYAMGWFRQAPGKDREFVAAISWIGESTYYADSVKGRFTISRDNAKNTVYLRMNSLKPEDTAVYYCAADLYYTAYVAAADEYDYWGQGTLVTVSSGGGGSGGGGSGGGGSGGGGSGGGGSGGGGSGGGGSEVQLVESGGGSVQPGGSLTLSCGTSGRTFNVMGWFRQAPGKEREFVAAVRWSSTGIYYTQYADSVKSRFTISRDNAKNTVYLEMNSLKPEDTAVYYCAADTYNSNPARWDGYDFRGQGTLVTVSS	~1	~1	11										fold ctrl [4]: 1.5 fold
IL12Rb1#30-35GS-CD4#8 (bispecific antibody, also called BI#46; T023200046) EVQLVESGGGLVQTGGSLRLSCAASGRTPRLVAMGWFRQTPGKEREFVGEIILSKGFTYYADSVKGRFTISRVNAKNTITMYLQMNSLKSEDTAVYYCAGRQNWSGSPARTNEYEYWGQGTLVTVSSGGGGSGGGGSGGGGSGGGGSGGGGSGGGGSGGGGSEVQLVESGGGSVQPGGSLTLSCGTSGRTFNVMGWFRQAPGKEREFVAAVRWSSTGIYYTQYADSVKSRFTISRDNAKNTVYLEMNSLKPEDTAVYYCAADTYNSNPARWDGYDFRGQGTLVTVSS				~1	6.2	~1	3	0.45	0.29	38	0.016	875	fold ctrl [8]: 0.6 fold; fold ctrl, IFNγ release, T cells D839 [10]: 552 fold; fold ctrl [11]: 0.5 fold
IL12Rb1#31-35GS-CD4#8 (bispecific antibody, also called BI#47; T023200047) EVQLVESGGGLVQTGGSLRLSCAASGRTPSIIAMGWFRQTPGKEREFVGEIILSKGFTYYADSVKGRFTISRANAKNTITMYLQMNSLKSEDTAVYYCAARQNWSGNPTRTNEYEYWGQGTLVTVSSGGGGSGGGGSGGGGSGGGGSGGGGSGGGGSGGGGSEVQLVESGGGSVQPGGSLTLSCGTSGRTFNVMGWFRQAPGKEREFVAAVRWSSTGIYYTQYADSVKSRFTISRDNAKNTVYLEMNSLKPEDTAVYYCAADTYNSNPARWDGYDFRGQGTLVTVSS				~1	24	~1	13	1.9	4.1	41	0.23	565	fold ctrl [13]: 0.8 fold; fold ctrl [14]: 0.9 fold
CD4#8-35GS-IL12Rb1#30 (bispecific antibody, also called BI#40; T023200040) EVQLVESGGGSVQPGGSLTLSCGTSGRTFNVMGWFRQAPGKEREFVAAVRWSSTGIYYTQYADSVKSRFTISRDNAKNTVYLEMNSLKPEDTAVYYCAADTYNSNPARWDGYDFRGQGTLVTVSSGGGGSGGGGSGGGGSGGGGSGGGGSGGGGSGGGGSEVQLVESGGGLVQTGGSLRLSCAASGRTPRLVAMGWFRQTPGKEREFVGEIILSKGFTYYADSVKGRFTISRVNAKNTITMYLQMNSLKSEDTAVYYCAGRQNWSGSPARTNEYEYWGQGTLVTVSS				~1	7.3	~1	3.6	0.36	0.28	47	0.035	1630	fold ctrl [8]: 0.5 fold; fold ctrl, IFNγ release, T cells D839 [10]: 429 fold; fold ctrl [11]: 0.4 fold
CD4#8-35GS-IL12Rb1#31 (bispecific antibody, also called BI#41; T023200041) EVQLVESGGGSVQPGGSLTLSCGTSGRTFNVMGWFRQAPGKEREFVAAVRWSSTGIYYTQYADSVKSRFTISRDNAKNTVYLEMNSLKPEDTAVYYCAADTYNSNPARWDGYDFRGQGTLVTVSSGGGGSGGGGSGGGGSGGGGSGGGGSGGGGSGGGGSEVQLVESGGGLVQTGGSLRLSCAASGRTPSIIAMGWFRQTPGKEREFVGEIILSKGFTYYADSVKGRFTISRANAKNTITMYLQMNSLKSEDTAVYYCAARQNWSGNPTRTNEYEYWGQGTLVTVSS				~1	28	~1	15	2.2	1.7	50	0.17	1710	fold ctrl [13]: 0.7 fold; fold ctrl [14]: 0.8 fold
CD4#8-35GS-IL23R#19 (bispecific antibody, also called BI#45; T023200045) EVQLVESGGGSVQPGGSLTLSCGTSGRTFNVMGWFRQAPGKEREFVAAVRWSSTGIYYTQYADSVKSRFTISRDNAKNTVYLEMNSLKPEDTAVYYCAADTYNSNPARWDGYDFRGQGTLVTVSSGGGGSGGGGSGGGGSGGGGSGGGGSGGGGSGGGGSEVQLVESGGGLVQPGGSLTLSCVASGRTFSTDVMGWFRQAPGKEREFVAAHRTSGISTVYAASVKGRFTISRDNAKNTVYLGMKSLKPEDTAVYVCAAGSDASGGYDYWGQGTLVTVSS	~1	~1	6.6										fold ctrl [15]: 0.3 fold; IC50, IL-17 release, PBMC D840 [16]: 24.2 nM; fold ctrl, IL-17 release [16]: 4.1 fold
CD4#8-35GS-IL23R#20 (bispecific antibody, also called BI#44; T023200044) EVQLVESGGGSVQPGGSLTLSCGTSGRTFNVMGWFRQAPGKEREFVAAVRWSSTGIYYTQYADSVKSRFTISRDNAKNTVYLEMNSLKPEDTAVYYCAADTYNSNPARWDGYDFRGQGTLVTVSSGGGGSGGGGSGGGGSGGGGSGGGGSGGGGSGGGGSEVQLVESGGGLVQAGGSLRLSCAASGRTFSSYAMGWFRQAPGKDREFVAAISWIGESTYYADSVKGRFTISRDNAKNTVYLRMNSLKPEDTAVYYCAADLYYTAYVAAADEYDYWGQGTLVTVSS	~1	~1	15										fold ctrl [4]: 1.1 fold; IC50, IL-17 release, PBMC D840 [16]: 22 nM
